The text below walks through data of the supplement of paper PMC10567573.

B1: MTMR15 (parent)
chain: YVKAKKSIDKDEEFAGSSPQSSKS
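Further: lentivirally expressed fusions sorted by FACS into six bins by GFP to DsRed ratio, PSI derived from sequencing read proportions per bin multiplied by bin number.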

Variants of B1 are the subject of the series. Put plainly: protein stability index of a GFP-peptide fusion (GPS, HEK-293T) (PSI 1-6); higher = more stable. The note with it: c terminus: a fixed tail appended.
Turning to YEKAKKSIDKDEEFAGSSPQSSKS [V2E], the protein stability index was 5.56.
For YRKAKKSIDKDEEFAGSSPQSSKS [V2R] the value was 5.42; for YSKAKKSIDKDEEFAGSSPQSSKS [V2S], 5.38.
YIKAKKSIDKDEEFAGSSPQSSKS [V2I]: the protein stability index turned out to be 4.23.
As for YAKAKKSIDKDEEFAGSSPQSSKS [V2A], the figure is 5.13; as for YMKAKKSIDKDEEFAGSSPQSSKS [V2M], 4.91.
As to YYKAKKSIDKDEEFAGSSPQSSKS [V2Y], the protein stability index amounted to 5.39.
For YCKAKKSIDKDEEFAGSSPQSSKS [V2C] the value was 4.52.
For YQKAKKSIDKDEEFAGSSPQSSKS [V2Q] the value was 5.09; for YNKAKKSIDKDEEFAGSSPQSSKS [V2N], 5.16; for YPKAKKSIDKDEEFAGSSPQSSKS [V2P], 4.76.
For YTKAKKSIDKDEEFAGSSPQSSKS [V2T] the value was 5.08.
Take YHKAKKSIDKDEEFAGSSPQSSKS [V2H]: the protein stability index worked out at 4.49.
For YLKAKKSIDKDEEFAGSSPQSSKS [V2L] the value was 4.84; for YKKAKKSIDKDEEFAGSSPQSSKS [V2K], 5.26.
As for YWKAKKSIDKDEEFAGSSPQSSKS [V2W], the figure is 4.5; as for YGKAKKSIDKDEEFAGSSPQSSKS [V2G], 5.2.
For YDKAKKSIDKDEEFAGSSPQSSKS [V2D] the value was 5.5; for YVKSKKSIDKDEEFAGSSPQSSKS [A4S], 2.45; for YVKWKKSIDKDEEFAGSSPQSSKS [A4W], 1.8.
YVKTKKSIDKDEEFAGSSPQSSKS [A4T]: the protein stability index was found to be 2.39.
As for YVKGKKSIDKDEEFAGSSPQSSKS [A4G], the figure is 3.42.
In the case of YVKYKKSIDKDEEFAGSSPQSSKS [A4Y], the protein stability index was 3.55.
With YVKEKKSIDKDEEFAGSSPQSSKS [A4E], the protein stability index amounted to 3.54.
For YVKCKKSIDKDEEFAGSSPQSSKS [A4C] the value was 2.97; for YVKKKKSIDKDEEFAGSSPQSSKS [A4K], 4.12.
For YVKDKKSIDKDEEFAGSSPQSSKS [A4D] the value was 3.27.
For YVKRKKSIDKDEEFAGSSPQSSKS [A4R] the value was 3.32.
With YVKNKKSIDKDEEFAGSSPQSSKS [A4N], the protein stability index was found to be 2.99.
For YVKMKKSIDKDEEFAGSSPQSSKS [A4M] the value was 3.31.
As for YVKQKKSIDKDEEFAGSSPQSSKS [A4Q], the protein stability index worked out at 3.41.
For YVKIKKSIDKDEEFAGSSPQSSKS [A4I], the protein stability index is 3.24.
As for YVKPKKSIDKDEEFAGSSPQSSKS [A4P], the figure is 3.19; as for YVKVKKSIDKDEEFAGSSPQSSKS [A4V], 3.08.
For YVKHKKSIDKDEEFAGSSPQSSKS [A4H] the value was 3.51.
With YVKLKKSIDKDEEFAGSSPQSSKS [A4L], the protein stability index was 3.04.
For YVKFKKSIDKDEEFAGSSPQSSKS [A4F] the value was 2.89; for YVGAKKSIDKDEEFAGSSPQSSKS [K3G], 2.27; for YVYAKKSIDKDEEFAGSSPQSSKS [K3Y], 2.61.
For YVHAKKSIDKDEEFAGSSPQSSKS [K3H] the value was 3.22; for YVSAKKSIDKDEEFAGSSPQSSKS [K3S], 2.76.
For YVTAKKSIDKDEEFAGSSPQSSKS [K3T] the value was 2.84.
As to YVVAKKSIDKDEEFAGSSPQSSKS [K3V], the protein stability index is 3.85.
As for YVCAKKSIDKDEEFAGSSPQSSKS [K3C], the figure is 3.3; as for YVRAKKSIDKDEEFAGSSPQSSKS [K3R], 2.4.
For YVPAKKSIDKDEEFAGSSPQSSKS [K3P] the value was 2.04; for YVAAKKSIDKDEEFAGSSPQSSKS [K3A], 2.87.
As for YVLAKKSIDKDEEFAGSSPQSSKS [K3L], the figure is 3.05; as for YVWAKKSIDKDEEFAGSSPQSSKS [K3W], 3.1; as for YVMAKKSIDKDEEFAGSSPQSSKS [K3M], 3.28.
Take YVNAKKSIDKDEEFAGSSPQSSKS [K3N]: the protein stability index came out at 3.52.
For YVEAKKSIDKDEEFAGSSPQSSKS [K3E] the value was 3.48; for YVFAKKSIDKDEEFAGSSPQSSKS [K3F], 3.3.
For YVIAKKSIDKDEEFAGSSPQSSKS [K3I] the value was 3.38; for YVQAKKSIDKDEEFAGSSPQSSKS [K3Q], 3.31; for YVDAKKSIDKDEEFAGSSPQSSKS [K3D], 3.96.
For FVKAKKSIDKDEEFAGSSPQSSKS [Y1F] the value was 2.79.
For the variant NVKAKKSIDKDEEFAGSSPQSSKS [Y1N], the protein stability index amounted to 5.4.
With EVKAKKSIDKDEEFAGSSPQSSKS [Y1E], the protein stability index worked out at 5.82.
For WVKAKKSIDKDEEFAGSSPQSSKS [Y1W] the value was 4.66; for TVKAKKSIDKDEEFAGSSPQSSKS [Y1T], 5.69.
For VVKAKKSIDKDEEFAGSSPQSSKS [Y1V] the value was 5.29; for GVKAKKSIDKDEEFAGSSPQSSKS [Y1G], 5.7; for DVKAKKSIDKDEEFAGSSPQSSKS [Y1D], 5.62.
For RVKAKKSIDKDEEFAGSSPQSSKS [Y1R] the value was 5.62; for AVKAKKSIDKDEEFAGSSPQSSKS [Y1A], 5.37; for LVKAKKSIDKDEEFAGSSPQSSKS [Y1L], 5.14.
On to MVKAKKSIDKDEEFAGSSPQSSKS [Y1M], for which the protein stability index was 5.01.
For KVKAKKSIDKDEEFAGSSPQSSKS [Y1K] the value was 5.15.
For IVKAKKSIDKDEEFAGSSPQSSKS [Y1I] the value was 5.52; for HVKAKKSIDKDEEFAGSSPQSSKS [Y1H], 5.11.
As for SVKAKKSIDKDEEFAGSSPQSSKS [Y1S], the figure is 5.49; as for QVKAKKSIDKDEEFAGSSPQSSKS [Y1Q], 5.48.
PVKAKKSIDKDEEFAGSSPQSSKS [Y1P]: the protein stability index is 5.19.
In the case of CVKAKKSIDKDEEFAGSSPQSSKS [Y1C], the protein stability index amounted to 5.51.
YVKAPKSIDKDEEFAGSSPQSSKS [K5P]: the protein stability index was 2.31.
As for YVKAHKSIDKDEEFAGSSPQSSKS [K5H], the figure is 2.8.
Consider YVKAEKSIDKDEEFAGSSPQSSKS [K5E], for which the protein stability index came to 4.21.
As for YVKARKSIDKDEEFAGSSPQSSKS [K5R], the protein stability index stood at 2.73.
As for YVKAVKSIDKDEEFAGSSPQSSKS [K5V], the figure is 3.47; as for YVKAMKSIDKDEEFAGSSPQSSKS [K5M], 2.6.
As for YVKAYKSIDKDEEFAGSSPQSSKS [K5Y], the figure is 2.07; as for YVKACKSIDKDEEFAGSSPQSSKS [K5C], 2.74; as for YVKAFKSIDKDEEFAGSSPQSSKS [K5F], 2.44.
As for YVKAWKSIDKDEEFAGSSPQSSKS [K5W], the figure is 1.6; as for YVKATKSIDKDEEFAGSSPQSSKS [K5T], 3.31.
Take YVKALKSIDKDEEFAGSSPQSSKS [K5L]: the protein stability index is 2.15.
For YVKAAKSIDKDEEFAGSSPQSSKS [K5A] the value was 3; for YVKAQKSIDKDEEFAGSSPQSSKS [K5Q], 3.83; for YVKADKSIDKDEEFAGSSPQSSKS [K5D], 4.22.
With YVKAIKSIDKDEEFAGSSPQSSKS [K5I], the protein stability index was determined as 2.29.
As for YVKASKSIDKDEEFAGSSPQSSKS [K5S], the figure is 3.12.
For YVKAGKSIDKDEEFAGSSPQSSKS [K5G] the value was 2.9.
For YVKANKSIDKDEEFAGSSPQSSKS [K5N] the value was 3.62.
